For experiment [1], the target named is mouse recombinant sFRP-3 (R&D) (mouse) (UniProt P97401). Briefly: other fluorescence titration; competition: 250 nM native EGF added to 25 nM EGFAlexa488 prior to 100 nM sFRP-3, in PBS; spectrum of Alexa488, peak at 517 nm.
Another experiment addresses Alexa488-conjugated EGF. Described as above.

In the case of recombinant mouse EGF (ligand), the decrease of the EGFAlexa488 absorbance value at the emission peak when native EGF was added before sFRP-3 in experiment [1] was 7 units.

B1: mouse recombinant sFRP-3 (R&D) (natural protein)
chain: AACEPVRIPLCKSLPWNMTKMPNHLHHSTQANAILAMEQFEGLLGTHCSPDLLFFLCAMYAPICTIDFQHEPIKPCKSVCERARQGCEPILIKYRHSWPESLACDELPVYDRGVCISPEAIVTADGADFPMDSSTGHCRGASSERCKCKPVRATQKTYFRNNYNYVIRAKVKEVKMKCHDVTAVVEVKEILKASLVNIPRDTVNLYTTSGCLCPPLTVNEEYVIMGYEDEERSRLLLVEGSIAEKWKDRLGKKVKRWDMKLRHLGLGKTDASDSTQNQKSGRNSNPRPARS
For B1, the decrease of the EGFAlexa488 absorbance value at the emission peak with Alexa488-conjugated EGF was determined as 10 units.
